Experimental data from PMC12098658.

Legend:
[1] = biological target: GFP-JMY CT (aa821-983) (Mus musculus) (UniProt Q9QXM1); test: co-IP; L929 lysate with GFP-JMY CT, continuous 2 µM Ca2+ for 2 h, compared with continuous EGTA; anti-GFP immunoprecipitation, quantitative immunoblot
[2] = biological target: GFP-JMY WH2#1 (aa841-883) (Mus musculus) (UniProt Q9QXM1); test: co-IP; as a9 but lysate/antibody mixture with 2 µM Ca2+; actin CoIP/GFP IP ratio as percent difference from the Ca2+-free (1 mM EGTA) condition
GFP-JMY WH2#1 (aa841-883) (Mus musculus), sequence (Q9QXM1 841-883): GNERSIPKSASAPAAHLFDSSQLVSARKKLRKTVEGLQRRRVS

[3] = biological target: GFP-JMY CT (aa821-983) (Mus musculus) (UniProt Q9QXM1); test: as above

GFP-JMY CT (aa821-983) (Mus musculus), sequence (Q9QXM1 821-983): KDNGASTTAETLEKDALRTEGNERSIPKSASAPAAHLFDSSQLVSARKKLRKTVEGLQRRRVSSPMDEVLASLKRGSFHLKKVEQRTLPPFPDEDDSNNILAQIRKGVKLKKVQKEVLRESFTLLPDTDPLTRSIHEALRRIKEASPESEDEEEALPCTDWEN

percent change of coimmunoprecipitated actin with 2 µM Ca2+ against the Ca2+-free condition [1]: -80% | percent change of coimmunoprecipitated actin with 2 µM Ca2+ against the Ca2+-free condition [2]: < -80% | percent change of coimmunoprecipitated actin with 2 µM Ca2+ against the Ca2+-free condition [3]: < -80%
Substance: endogenous actin from L929 cells (from UniProt P60710 1-375) (natural protein)
